Laboratory results reported in IntAct's records for PubMed 27150041.

Target: smu2_caeel smu-2 (UniProt Q9N4U5)
Sequence (Q9N4U5 whole entry): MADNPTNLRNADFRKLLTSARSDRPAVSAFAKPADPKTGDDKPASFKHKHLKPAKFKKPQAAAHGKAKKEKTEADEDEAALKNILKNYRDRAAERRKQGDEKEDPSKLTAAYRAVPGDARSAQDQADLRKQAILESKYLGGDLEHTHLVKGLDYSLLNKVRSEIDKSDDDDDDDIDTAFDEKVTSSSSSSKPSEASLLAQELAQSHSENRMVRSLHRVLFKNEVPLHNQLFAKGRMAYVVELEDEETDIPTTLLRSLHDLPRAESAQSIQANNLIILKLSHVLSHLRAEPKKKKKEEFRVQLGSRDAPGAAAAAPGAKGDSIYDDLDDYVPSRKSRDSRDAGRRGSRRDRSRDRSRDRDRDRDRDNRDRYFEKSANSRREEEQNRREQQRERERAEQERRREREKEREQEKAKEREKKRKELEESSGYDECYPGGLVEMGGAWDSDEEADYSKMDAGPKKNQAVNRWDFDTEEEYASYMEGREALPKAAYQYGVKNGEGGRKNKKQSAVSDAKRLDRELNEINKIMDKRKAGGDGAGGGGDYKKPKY

Chain of Smu-1 suppressor of mec-8 and unc-52 protein (Caenorhabditis elegans), G5EEG7 L96R (G5EEG7 whole entry L96R): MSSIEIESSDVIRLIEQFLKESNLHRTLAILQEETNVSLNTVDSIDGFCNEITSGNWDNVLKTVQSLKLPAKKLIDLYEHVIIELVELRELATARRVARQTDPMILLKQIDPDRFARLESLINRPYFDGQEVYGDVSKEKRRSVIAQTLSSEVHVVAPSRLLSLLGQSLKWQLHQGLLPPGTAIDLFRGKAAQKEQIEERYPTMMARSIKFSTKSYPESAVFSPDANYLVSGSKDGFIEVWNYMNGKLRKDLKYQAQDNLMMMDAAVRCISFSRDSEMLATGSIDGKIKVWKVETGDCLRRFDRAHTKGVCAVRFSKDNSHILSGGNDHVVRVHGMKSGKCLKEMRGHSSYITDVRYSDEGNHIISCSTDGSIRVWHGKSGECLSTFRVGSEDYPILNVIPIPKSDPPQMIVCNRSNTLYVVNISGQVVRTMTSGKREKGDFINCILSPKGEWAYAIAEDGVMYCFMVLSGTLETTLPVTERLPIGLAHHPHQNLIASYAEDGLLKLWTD

Substance: Smu-1 suppressor of mec-8 and unc-52 protein (Caenorhabditis elegans), G5EEG7 L96R
- effect of a mutation on the interaction: disrupting interaction strength
